Consider 3 molecules from paper PMC3046972, “Phosphorylation-Dependent 14-3-3 Binding to LRRK2 Is Impaired by Common Mutations of Familial Parkinson's Disease” (PLoS ONE, 2011).

Where no end group is shown, it is not given here. [ ]: non-standard residue; d: D form. pS = N[C@@H](COP(=O)(O)O)C(=O)O

One test concerns the target Myc-14-3-3γ wild type (UniProt P61981). The test can be described thus: co-IP; HEK-293T cells co-transfected with FLAG-LRRK2 (wild type or mutant) and Myc-14-3-3; immunoprecipitation with anti-Myc antibody overnight, washes with modified RIPA buffer (300 mM NaCl); blot with anti-FLAG; Figure 5C quantified with LI-COR Odyssey.
For the next test, the target named is T1, GST-14-3-3γ (UniProt P61981 1-247).
T1 construct: 14-3-3 gamma; also called purified GST-14-3-3γ; Sepharose bead-conjugated GST-14-3-3γ; source: bacteria (100 µM IPTG, 4 hours at 37°C), purified following the manufacturer's instruction (GE Healthcare)
T1 sequence (looked up): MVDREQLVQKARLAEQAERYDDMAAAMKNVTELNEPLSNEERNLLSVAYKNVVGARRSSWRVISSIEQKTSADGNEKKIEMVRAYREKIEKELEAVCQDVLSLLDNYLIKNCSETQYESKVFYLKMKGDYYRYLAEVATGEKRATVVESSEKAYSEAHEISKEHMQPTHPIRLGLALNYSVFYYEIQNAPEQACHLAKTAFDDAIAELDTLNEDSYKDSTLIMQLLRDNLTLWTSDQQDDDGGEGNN
As to the kind of experiment: pull-down; competition: synthetic peptide at various concentrations added to brain lysate of FLAG-LRRK2 Wt transgenic mice for 1 hour, then GST-14-3-3γ beads for 4 hours; read-out is the FLAG-LRRK2 pulled down. Particulars: both partners purified.

Turning to “FLAG-LRRK2 S935A mutant (from UniProt Q5S006 1-2527) (natural protein)”, in the test with Myc-14-3-3γ wild type, the reduction of co-immunoprecipitation with Myc-14-3-3γ compared to wild type LRRK2 stood at 90%.

Take FLAG-LRRK2 G2019S mutant, Q5S006 1-2527: in the test with Myc-14-3-3γ wild type, the reduction of co-immunoprecipitation with Myc-14-3-3γ compared to wild type LRRK2 is < 20%.

B1: phospho-peptide QRHSNpSLGPC (containing pS935 of LRRK2) (peptide)
peptide: Ac-QRHSN[pS]LGPC
notes: stretch of LRRK2 around S935; C-terminal cysteine printed only in the methods; The results print the peptide without the last C (QRHSNpSLGP); the methods print QRHSNpSLGPC; also called pS935-containing peptide; phosphorylated peptide (pS935); source: synthetic peptide (The Rockefeller University Proteomics Resource Center, HPLC purified)
As to B1, the binding result with GST-14-3-3γ is reported as “binds”.
